From paper doi:10.1101/2024.05.16.594476 come the findings set out here.

Where “and” joins values, the source holds several entries; their conditions need not be identical. Equal values may be shown once.

In test [1] the target is Mtb PhoP, phosphorylated with acetyl phosphate (AcP) (Mycobacterium tuberculosis) (UniProt P71814). Nature of the test: cryo-EM structure.
Test [2] has the same target. Nature of the test: […].
Test [3] shares this target. Nature of the test: […]. The source holds these as a separate data set.

The stoichiometry N is a count of units in the complex or per binding partner. As for “Mtb PhoP, phosphorylated with acetyl phosphate (AcP) (from UniProt P71814 1-247) (natural protein)”, the stoichiometry N in test [1] was 2; in test [2] it was 2; in test [3], 6 and 4.
